Results on five molecules are retold here after patent US20240358849A1 (SUZHOU FUSE BIOSCIENCES, published 2024).

The target in test [1] is human FAP expressed on cells (HEK 293T-hFAP-E5; ExpiCHO-hFAP) (human, UniProt Q12884 1-760). The test can be described thus: cell-based or functional assay.
The target in test [2] is T1, IL-2hex, mutant human IL-2 (deltaA1/T3A/F42A/Y45A/L72G/C125S) (human, UniProt P60568 22-153).
T1 chain: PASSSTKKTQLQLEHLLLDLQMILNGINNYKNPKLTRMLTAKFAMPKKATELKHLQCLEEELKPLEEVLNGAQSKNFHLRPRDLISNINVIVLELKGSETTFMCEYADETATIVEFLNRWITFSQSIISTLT
The test is described as follows: cell-based or functional assay.

Test [3] addresses T2, human Fibroblast Activation Protein (FAP), soluble antigen (human, UniProt Q12884 26-760, biotinylated when immobilized on streptavidin sensors).
T2 construct: also called hFAP; biotinylated FAP
The test is described as follows: Affinity (nM), Table 13B.

For test [4], the target named is T1, IL-2hex, mutant human IL-2 …. The test is described as follows: Affinity (nM), Table 13B.
The target of test [5] is T2, human Fibroblast Activation Protein …. The test is described as follows: not stated (legend of FIG. 20B).
For test [6], the target named is T1, IL-2hex, mutant human IL-2 …. The test is described as follows: not stated (legend of FIG. 20B).
The target in test [7] is T2, human Fibroblast Activation Protein …. The test is described as follows: BLI, FAP on streptavidin sensor, monovalent Fab-Fc fusion of D002. For orientation: BLI is a label-free optical method that tracks binding on a fibre tip over time.
Test [8] addresses T1, IL-2hex, mutant human IL-2 …. The test is described as follows: not stated in the sentence (BLI value of FIG. 4B, there told for IL-2).
In test [9] the target is T3, human interleukin-2 (IL-2), wild type (human, UniProt P60568 21-153, biotinylated when immobilized).
T3 construct: also called biotinylated IL-2; IL2 WT
The test can be described thus: BLI, equilibrium binding analysis, biotinylated IL-2 on streptavidin sensor, monovalent Fab-Fc fusion of D002.

The target of test [10] is T2, human Fibroblast Activation Protein …. The test can be described thus: not stated (legend of FIG. 18B).
The target is the same in test [11]. The test is described as follows: not stated (legend of FIG. 27C).
Test [12] has the same target. The test can be described thus: BLI per 6.1.3, human FAP.
For test [13] the target is unchanged. The test can be described thus: BLI per 6.1.3, human FAP. The source holds these as a separate data set.
Test [14] has the same target. The test can be described thus: BLI; Table 11, antibody variants (Fab/scFv).
Test [15] addresses T3, human interleukin-2 (IL-2), wild type. The test can be described thus: BLI; Table 11, antibody variants (Fab/scFv).
Test [16] concerns the target T1, IL-2hex, mutant human IL-2 …. The test can be described thus: screening of phage libraries, monoclonal phage ELISA. On the technique in general: ELISA stands for enzyme-linked immunosorbent assay.
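For kon in this document: biolayer interferometry with immobilized antigen on sensors, antibody association up to 240 s then dissociation up to 420 s, reference-subtracted, global 1:1 fit with unlinked Rmax.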

T3 sequence (P60568 21-153): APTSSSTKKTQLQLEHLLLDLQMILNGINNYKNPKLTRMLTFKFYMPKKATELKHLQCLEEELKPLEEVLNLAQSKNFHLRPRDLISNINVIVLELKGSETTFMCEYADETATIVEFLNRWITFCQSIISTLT

B1: D029-HV1LV1 (bispecific antibody, V domains shown)
VH: EVQLVESGGGLVQPGGSLRLSCAASGFTFTWSFMSWVRQAPGKGLEWVSWIGPSGLYTDYADSVKGRFTISRDNSKNTLYLQMNSLRAEDTAVYYCARSQYGRYYSPDYYFDYWGQGTLVTVSS
VL: DIQMTQSPSSLSASVGDRVTITCRASQALGFYLNWYQQKPGKAPKLLIYAASSLSSGVPSRFSGSGSGTDFTLTISSLQPEDFATYYCQQGRTPPLTFGQGTKVEIKR
notes: also called D029 Rev1/S55L; D029HVILV1 (so in the source)
For B1, in test [1], the “EC50 of HEK-Blue IL2 assay (pM) with HEK 293T-hFAP-E5; variant as masking moiety of a configuration 3 immunoconjugate” value came out at 42 pM. Also, the “EC50 of HEK-Blue IL2 assay (pM) with HEK 293T; variant as masking moiety of a configuration 3 immunoconjugate” value in test [2] came out at 6060 pM. Also, the Kd was 1.8 nM in test [3], 427 nM in test [4], above 5 µM in test [5] and around 237 nM in [6].

B2: anti-IL-2/anti-FAP two-in-one antibody D002 (bispecific antibody, V domains shown)
VH: EVQLVESGGGLVQPGGSLRLSCAASGFTFSRYSMSWVRQAPGKGLEWVSDISSYSTTYYADSVKGRFTISRDNSKNTLYLQMNSLRAEDTAVYYCARSQYGRYYSPDYYFDYWGQGTLVTVSS
VL: DIQMTQSPSSLSASVGDRVTITCRASQSIGNSLNWYQQKPGKAPKLLIYAASSLQSGVPSRFSGSGSGTDFTLTISSLQPEDFATYYCQQGRRSPFTFGQGTKVEIKR
B2: the Kd in [7] is around 50 nM; in [8] it was around 3.4 µM; in test [9], 3.4 µM.

B3: anchoring moiety of FB-675 and FB-676: scFv872-5Dbl(S-S) (scFv, V domains shown)
VH: EVQLVESGGGLVQPGGSLRLSCAASGFTFRGYIMSWVRQAPGKGLEWVSWIGPEGSRTGYADSVKGRFTISRDNSKNTLYLQMNSLRAEDTAVYYCARLLYGTWFDYWGQGTLVTVSS
VL: DIQMTQSPSSLSASVGDRVTITCRASQSISSYLNWYQQKPGKAPKLLIYAASSLQSGVPSRFSGSGSGTDFTLTISSLQPEDFATYYCQQGTLLLPTFGQGTKVEIKR
modifications: disulfide to VH at VL residue 100; disulfide to VL at VH residue 44
notes: also called scFv872-5V1
For B3, the dissociation constant (Kd) was around 5 nM in [10] and around 50 nM in test [11].

B4: anti-FAP antibody 872-5V1 (antibody, V domains shown)
VH: EVQLVESGGGLVQPGGSLRLSCAASGFTFRGYIMSWVRQAPGKGLEWVSWIGPEGSRTGYADSVKGRFTISRDNSKNTLYLQMNSLRAEDTAVYYCARLLYGTWFDYWGQGTLVTVSS
VL: DIQMTQSPSSLSASVGDRVTITCRASQSISSYLNWYQQKPGKAPKLLIYAASSLQSGVPSRFSGSGSGTDFTLTISSLQPEDFATYYCQQGTLLLPTFGQGTKVEIKR
notes: KD by BLI per 6.1.3 (monovalent Fab-Fc)
Regarding B4, the “improvement of the affinity over parent 872-5 (fold)” value in test [12] is above 80 fold. In [13], this molecule returned a Kd below 0.1 nM and a kon of 625000 M⁻¹ s⁻¹.

B5: anti-IL-2/anti-FAP two-in-one antibody D001 (bispecific antibody, V domains shown)
VH: EVQLVESGGGLVQPGGSLRLSCAASGFTFSRYSMSWVRQAPGKGLEWVSAISPYGGGTDYADSVKGRFTISRDNSKNTLYLQMNSLRAEDTAVYYCARSQYGRYYSPDYYFDYWGQGTLVTVSS
VL: DIQMTQSPSSLSASVGDRVTITCRASQVIGSSLNWYQQKPGKAPKLLIYAASSLQSGVPSRFSGSGSGTDFTLTISSLQPEDFATYYCQQGRSYPYTFGQGTKVEIKR
notes: Fab/scFv or monovalent Fab-Fc
In the case of B5, the Kd in [14] is 30 nM; in test [15], above 5 µM. In addition, the binding result in test [16] is “binds”.

By Kd is commonly meant the constant that tells how readily two partners part at equilibrium. A low value points to a tighter complex. As a reminder, the kon is the second-order rate constant of association. Lower therefore signals slower complex formation.
